# From PMC7567689, “High-level expression of aryl-alcohol oxidase 2 from Pleurotus eryngii in Pichia pastoris for production of fragrances and bioactive precursors” (Applied Microbiology and Biotechnology, 2020)
# Legend:
# PeAAO2 [1] = biological target: T1, PeAAO2 (Pleurotus eryngii, UniProt D3YBH4); assay: direct UV assay of cuminaldehyde formation at […] nm, Michaelis-Menten fit; type: biochemical; conditions: 100 mM sodium phosphate pH 6.0, 25 °C; O2 as co-substrate; glycosylated enzyme; read-out: PeAAO2 from P. eryngii expressed in P. pastoris^a
# T1 construct: no tag mentioned
# PeAAO2 [2] = biological target: T1, PeAAO2; assay: direct UV assay of veratraldehyde formation at […] nm, Michaelis-Menten fit; type: biochemical; conditions: 100 mM sodium phosphate pH 6.0, 25 °C; O2 as co-substrate; glycosylated enzyme; read-out: PeAAO2 from P. eryngii expressed in P. pastoris^a
# OC/C=C/c1ccccc1 = tested on: T2, OC/C=C/c1ccccc1; assay: purified protein; type: biochemical, Pleurotus eryngii; conditions: 100 mM sodium phosphate pH 6.0, 25 °C, O2 as co-substrate, glycosylated enzyme, substrate in DMSO
# T2 construct: no tag mentioned
# OCc1ccccc1 = tested on: T3, OCc1ccccc1; assay: purified protein; type: biochemical, Pleurotus eryngii; conditions: 100 mM sodium phosphate pH 6.0, 25 °C, O2 as co-substrate, glycosylated enzyme
# T3 construct: no tag mentioned
# OCc1ccc2c(c1)OCO2 = tested on: T4, OCc1ccc2c(c1)OCO2; assay: purified protein; type: biochemical, Pleurotus eryngii; conditions: 100 mM sodium phosphate pH 6.0, 25 °C, O2 as co-substrate, glycosylated enzyme
# T4 construct: no tag mentioned
# C/C=C/C=C/CO = tested on: T5, C/C=C/C=C/CO; assay: purified protein; type: biochemical, Pleurotus eryngii; conditions: 100 mM sodium phosphate pH 6.0, 25 °C, O2 as co-substrate, glycosylated enzyme
# T5 construct: no tag mentioned
# T1 sequence (D3YBH4 28-593 limits assumed): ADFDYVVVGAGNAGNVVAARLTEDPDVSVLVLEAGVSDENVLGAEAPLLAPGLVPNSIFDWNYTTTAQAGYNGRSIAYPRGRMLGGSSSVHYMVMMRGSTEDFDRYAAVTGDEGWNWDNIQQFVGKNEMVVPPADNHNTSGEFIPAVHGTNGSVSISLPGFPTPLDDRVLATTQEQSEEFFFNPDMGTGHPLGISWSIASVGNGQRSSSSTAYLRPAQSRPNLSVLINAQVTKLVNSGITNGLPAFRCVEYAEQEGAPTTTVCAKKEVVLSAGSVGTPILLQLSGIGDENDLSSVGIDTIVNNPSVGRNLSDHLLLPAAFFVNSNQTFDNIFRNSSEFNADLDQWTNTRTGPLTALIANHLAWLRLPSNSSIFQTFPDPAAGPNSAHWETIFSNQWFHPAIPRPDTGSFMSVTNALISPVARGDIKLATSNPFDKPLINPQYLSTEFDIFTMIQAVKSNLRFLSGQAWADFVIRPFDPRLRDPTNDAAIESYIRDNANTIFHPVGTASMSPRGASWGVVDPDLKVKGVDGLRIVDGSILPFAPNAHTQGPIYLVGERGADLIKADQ
compound,measurement,setting,value
CC(C)c1ccc(CO)cc1 [Cumic alcohol],Km,PeAAO2 [1],1910 ± 42.4 µM
COc1ccc(CO)cc1OC [Veratryl alcohol],Km,PeAAO2 [2],447 ± 7.5 µM
PeAAO2 (Pleurotus eryngii),Km,OC/C=C/c1ccccc1,2740 ± 103 µM
same,kcat,OC/C=C/c1ccccc1,125.5 ± 0.1 s⁻¹
same,kcat/Km,OC/C=C/c1ccccc1,45800 M⁻¹ s⁻¹
same,Km,OCc1ccccc1,599.6 ± 18.7 µM
same,kcat,OCc1ccccc1,12.8 ± 0.01 s⁻¹
same,kcat/Km,OCc1ccccc1,21400 M⁻¹ s⁻¹
same,Km,OCc1ccc2c(c1)OCO2,59.1 ± 3.0 µM
same,kcat,OCc1ccc2c(c1)OCO2,35.5 ± 0.02 s⁻¹
same,kcat/Km,OCc1ccc2c(c1)OCO2,600000 M⁻¹ s⁻¹
same,Km,C/C=C/C=C/CO,143.6 ± 11.5 µM
same,kcat,C/C=C/C=C/CO,68.8 ± 0.05 s⁻¹
same,kcat/Km,C/C=C/C=C/CO,479000 M⁻¹ s⁻¹
